Patent USRE46585 (LABORATOIRE FRANCAIS DU FRACTIONNEMENT ET DES …, dated 2017)

Columns and labels:
FcRn-p3 fusion protein [1] = biological target: T1, FcRn-p3 fusion protein (human, UniProt P55899 24-297; P61769 21-119); assay: phage ELISA pH6
T1 construct: baculovirus expressed; coated on ELISA wells; not shown: amino terminal part of bacteriophage p3 protein and CVDE protein

FcRn-p3 fusion protein [2] = biological target: T1, FcRn-p3 fusion protein; assay: phage ELISA pH6 (est.)

Row | Binder | Ratio/Fc-H (FcRn-p3 fusion protein [1]) | Ratio/FWT (FcRn-p3 fusion protein [2])
1 | T4A_26 (other, EU numbering) CPPCPAPELLGGPSVFLFPPKPKDTLMISRTPEVTCVVEDVSHEDPEVKFNWYVDGVEVHNAKTKPREEQYNSTYRVVSVLPVLHQDWLNGKEYKCKVSNKALPAPIEKTISKAKGQPREPQVYTLPPSRDELTKNQVSLTCLVKGFYPSDIVVEWGSNGRPENNYKTTPPVLDSDGSFFLYSKLTVDKSRWQQGNVFSCSVMHEALHNHYTQKSLSLSPGK | 3.6 fold | 11.5 fold
2 | T4A_31 (other, EU numbering) CPPCTAPELLGGPSVLLFPPKPKDTLMISRTPEVTCVVEDVSHEDPEVKFNWYVDGVEVHNAKTKPREEQYNSTYRVVSVLPVLHQDWLNGKEYKCKVSNKALPAPIEKTISKAKGQPREPQVYTLPPSRDELTKNQVSLTCLVKGFYPSDIVVEWESNGQPENNYKTTPPVLDSDGSFFLYSKLTVDKSRWQQGNVFSCSVMHEALHNHYTQKSLSLSPGK | 3.7 fold | 11.7 fold
3 | T4A_43 (other, EU numbering) CPPCPAPELLGGPSVFLFPPKPKDTLMISRTPEVTCVVVDVSHEDPEVKFNWYVDGVEVHNAKTKPREEQYNSTYRVVSVLTVLHQDWLNGKEYKCKVSNKALPAPVEKTISKAKGQPREPQVYTLPPSRDELTKNQVSLTCLVRGFYPSDIVVEWESNGQPENNYKTTPPVLDSDGSFFLYSKLTVDKSRWQQGNVFSCSVMHEALHSHYTQKSLSLSPGK | 2 fold | 6.3 fold
4 | T4A_41 (other, EU numbering) CPPCPAPELLGGPSVRLFPPKPKDTLMISRTPEVTCVVEDVSHEDPEVKFNWYVDGVEVHNAKTKPREEQYNSTYRVVSVLPVLHQDWLNGKEYKCKVSNKALPAPIEKTISKAKGQPREPQVYTLPPSRDELTKNQVSLTCLVKGFYPSDIVVEWESNGQPENNYKTTPPVLDSDGSFFLYSKLTVDKSRWQQGNVFSCSVMHEALHNHYTQKSLSLSPGK | 2.5 fold | 8 fold
5 | T4A_44 (other, EU numbering) GPPCPAPELLGGPSVFLFPPKPKDTLMISRTPEVTCVVEDVSHEDPEVKFNWYVDGVEVHNAKTKPREEQYNSTYRVVSVLTVLHQDWLNGKEYKCKVSNKALPAPIEKTISKAKGQPREPQVYTLPPSRDELTKNQVSLTCLVKGFYPSDIVVEWESNGQPENNYKTTPPVLDSDGSLFLYSKLTVDKSRWQQGNVFSCSVMHEALHNHYTQKSLSLSPGK | 3.8 fold | 12 fold
6 | T4A_45 (other, EU numbering) CPPCPAPELLGGPSVFLFPPKPKDTLMISRTPEVTCVVEDVSHEDPEVKFNWYVDGVEVHNAKTKPREEQYNSTYRVVSVLTVPHQDWLNGKEYKCKVSNKALPAPIEKTISKAKGQPREPQVYTLPPSRDELTKNQVSLTCLVKGFYPSDIAVEWESNGQPENNYKTTPLVLDSDGSFFLYSKLTVDKSRWQQGNVFSCSVMHEALHSHYTQKSLSLSPGK | 2.7 fold | 8.7 fold
7 | T4A_32 (other, EU numbering) CPPCPAPELLGGPSVFLFPPKPKDTLMISRTPEVTCVVEDVSHEDPEVKFNWYVDGVEVHNAKTKPREEQYNSTYRVVSVLTVLHQDWLNGKEYKCKVSNKALPAPIEKTISKAKGQPREPQVYTLPPSRDELTKNQVSLTCLVKGFYPSDIVVEWESNGQPENNYKTTPPVLDSDGSFFLYSKLTVDKSRWQQGNVFSCSVMHEALRNHYTQKSLSLSPGK | 2.3 fold | 7.4 fold
8 | T4A_34 (other, EU numbering) CPPCPAPELLGGPSVFLFPPKPKDTLMISRTPEVTCVVEDVSHEDPEVKFNWYVDGVEVHNAKTKPREEQYNSTYRVVSVLTVLHQDWLNGKEYKCKVSNKALPAPIEKTISKAKGQPREPQVYTLPPSRDELTKNQVSLTCLVKGFYPSDIVVEWESNGQPENNYKTTPPVLDSDGSFFLYSKLTVDKSRWKQGNVFSCSVMHEALHNHYTQKSLSLSPGK | 1.3 fold | 4.3 fold
9 | T4A_39 (other, EU numbering) CPPCPAPELLGGPSVFLFPPKPKDTLMISRTPEVTCVVEDVSHEDPEVKFNWYVDGVEVHNAKTKPREEQYNSTYRVVSVLTVLHQDWLNGKEYKCKVSNKALPAPIEKTISKAKGQPREPQVYTLPPSRDELTKNQVSLTCLVKGFYPSDIVVEWESNGQPENNYKTTPLVLDSDGSFFLYSKLTVDKSRWQQGNVFSCSVMHEALHNHYTQKSLSLSPGK | 1.4 fold | 4.4 fold

Now from value to binder:

Row | Ratio/Fc-H (FcRn-p3 fusion protein [1]) | Ratio/FWT (FcRn-p3 fusion protein [2]) | Binder
10 | 1.9 fold | 5.9 fold | T5A_52 (other, EU numbering) CPPCPAPELLGGPSVFLFPPKPKDTLMISRTPEVTCVVVDVSHEDPEVKFNWYVDGVEVHNAKTKPREEQYNSTYRVVSVLTVLHQDWLDGKEYKCKVSNKVLPVPIEKTISKAKGQPREPQVYTLPPSRDELTKNQVSLTCLVKGFYPSDIAVEWESNGQPENNYKTTPPVLDSDGSFFLYSKLTVDKSRWQQGNVFSCSVMHEALHYHYTQKSLSLSPGK
11 | 2 fold | 6.4 fold | T5A_03 (other, EU numbering) CPPCPAPELLGGPSVFLFPPKPKDTLMISRTPEVTCVVEDVSHEDPEVKFNWYVDGVEVHNAKTKPREEQYNSTYRVVSVLTVLHQDWLNGKEYKCKVSNKALPAPIEKTISKAKGQPREPQVYTLPPSRDELTKNQVSLTCLVKGFYPSDIAVEWESNGQPENNYKTTPLVLDSDGSFFLYSKLTVDKSRWQQGNVFSCSVMHEALHSHYTQKSLSLSPGK
12 | 2.5 fold | 7.9 fold | T5A_28 (other, EU numbering) CPPCPAPELLGGPSVLLFPPKPKDTLMISRTPEVTCVVEDVSHEDPEVKFNWYVDGVEVHNAKTKPREEQYNSTYRVVSVLTVLHQDWLNGKEYKCKVSNKALPAPIEKTISKAKGQPREPQVYTLPPSRDELTKNQVSLTCLVKGFYPSDIVVEWESNGQPENNYKTTPPVLDSDGSFFLYSKLTVDKSRWQQGNVFSCSVMHEALHYHYTQKSLSLSPGK
13 | 1.2 fold | 3.8 fold | T5A_44 (other, EU numbering) CPPCPAPELLGGPSVLLFPPKPKDTLMISRTPEVTCVVEDVSHEDPEVKFNWYVDGVEVHNAKTKPREEQYNSTYRVVSVLPVLHQDWLNGKEYKCKVSNKALPAPIEKTISKAKGQPREPQVYTLPPSRDELTKNQVSLTCLVKGFYPSDITVEWESNGQPENNYKTTPPMLDSDGSFFLYSKLTVDKSRWQQGNVFSCSVMHEALHNHYTQKSLSLSPGK
14 | 3.6 fold | 11.4 fold | T4A_46 (other, EU numbering) CPPCTAPELLGGPSVFLFPPKPKDTLMISRTPEVTCVVVDVSHEDPEVKFNWYVDGVEVHNAKTKPREEQYNSTYRVVSVLTVLHQDWLNGKEYKCKVSNKALPAPIEKTISKAKGQPREPQVYTLPPSRDELTKNQVSLTCLVKGFYPSDIAVEWESNGQPEKNYKTTPPVLDSDGSFFLYSKLTVDKSRWQQGNVFSCSVMHEALHYHYTQKSLSLSPGK
15 | 2.8 fold | 9 fold | T5A_51 (other, EU numbering) CPPCPAPELLGGPSVFLFPPKPKDTLMISRTPEVTCVVEDVSHEDPEVKFNWYVDGVEVHNAKTKPREEQYNSTYRVVSVLTVLHQDWLNGKEYKCKVSNKALPAPIEKTISKAKGQPREPQVYTLPPSRDELTKNQVSLTCLVKGFYPSDIVVEWESNGQPENNYKTTPPVLDSDGSLFLYSKLTVDKSRWQQGNVFSCSVMHEALHSHYTQKSLSLSPGK
16 | 3.4 fold | 10.8 fold | T5A_40 (other, EU numbering) CPPCTAPELLGGPSVFLFPPKPKDTLMISRTPEVTCVVEDVSHEDPEVKFNWYVDGVEVHNAKTKPREEQYNSTYRVVSVLPVLHQDWLNGKEYKCKVSNKALPAPIEKTISKAKGQPREPQVYTLPPSRDELTKNQVSLTCLVKGFYPSDIVVEWESNGQPENNYKTTPPVLDSDGSFFLYSKLTVDKSRWQQGTVFSCSVMHEALHNHYTQKSLSLSPGK
17 | 1.9 fold | 6 fold | T5A_29 (other, EU numbering) CPPCPAPELLGGPSVFLFPPKPKDTLMISRTPEVTCVVVDVSHEDPEVKFNWYVDGVEVHNAKTKPREEQYNSTYRVVSVLTVLHQDWLDGKEYKCKVSNKALPAPIEKTISKAKGQPREPQVYTLPPSRDELTKNQVSLTCLVKGFYPSDIAVEWVSNGQPENNYKTTPPVLDSDGSFFLYSKLTVDKSRWQQGNVFSCSVMHEALHYHYTQKSLSLSPGK
18 | 2.4 fold | 7.8 fold | T5A_59 (other, EU numbering) CPPCPAPELLGGPSVFLFPPKPKDTLMISRTPEVTCVVVDVSHEDPEVKFNWYVDGVEVHNAKTKPREEQYNSTYRVVSVLTVLHQDWLNGKEYKCKVSNKALPAPIEKTISKAKGRPREPQVYTLPPSGDELTKNQVSLTCLVKGFYPSDIAVEWVSNGQPENNYKTTPPVLDSDGSFFLYSKLTVDKSRWQQGNVFSCSVMHEALHYHYTQKSLSLSPGK
19 | 2.7 fold | 8.8 fold | T5A_05 (other, EU numbering) CPPCPAPELLGGPSVFLFPPKPKDTLMISRTPEVTCVVEDVSHGDPEVKFNWYVDGVEVHNAKTKPREEQYNSTYRVVSVLTVLHQDWLNGKEYKCKVSNKALPAPIEKTISKAKGQPREPQVYTLPPSRDELTKNQVSLTCLVKGFYPSDIVVEWESNGQPENNYKTTPPVLDSDGSFFLYSKLTVDKSRWQQGTVFSCSVMHEALHSHYTQKSLSLSPGK
20 | 1.8 fold | 5.7 fold | T5A_90 (other, EU numbering) CPPCPAPELLGGPSVFLFPPKPKDTLMISRTPEVTCVVVDVSHEDPEVKFNWYVDGVEVHNAKTKPREEQYNSTYRVVSVLTVLHQDWLDGKEYKCKVSNKALPVPIEKTISKAKGQPREPQVYTLPPSRDELTKNQVSLTCLVKGFYPSDIAVEWESNGQPENNYRTTPPVLDSDGSFFLYSKLTVDKSRWQQGNVFLCSVMHEALHYHYTQKSLSLSPGK
21 | 2.2 fold | 7 fold | T5A_37 (other, EU numbering) CPPCPAPELLGGPSVFLFPPKPKDTLMISRTPEVTCVVVDVSHEDPEVKFNWYVDGVEVHNAKTKPREEQYNGTYRVVSVLTVLHQDWLDGKEYKCKVSNKALPVPIEKTISKAKGQPREPQVYTLPPSRDELTKNQVSLTCLVKGFYPSDIAVEWESNGQPENNYKTTPPVLDSDGSFFLYSKLTVDKSRWQQGNVFSCSVMHEALHYHYTQKSLSLSPGK
